Kd data for 17 sequences are collected here from the Immune Epitope Database (IEDB).

One assay has as its target HLA-A*01:01. Put plainly: IEDB peptide-MHC binding, purified MHC/direct/fluorescence; filed as Kd, often an IC50 or EC50 that approximates it; ≥ and ≤ were set here for values at or beyond the usual limits of such assays.
The next assay concerns the target HLA-A*80:01. Described as above.
For another assay, the target named is HLA-C*04:01. Described as above.
For a further assay, the target named is HLA-A*24:03. The assay is described as above. The following applies: source organism: Bacillus anthracis.
Assay [1] addresses HLA-C*14:02. Put plainly: IEDB peptide-MHC binding, purified MHC/competitive/fluorescence; filed as Kd, often an IC50 or EC50 that approximates it; ≥ and ≤ were set here for values at or beyond the usual limits of such assays.
The next assay concerns the target HLA-B*15:42. The assay is described as above.
The target in a further assay is HLA-B*45:06. Described as above.
The target in another assay is HLA-C*12:03. The assay is described as follows: IEDB peptide-MHC binding, purified MHC/direct/fluorescence; filed as Kd, often an IC50 or EC50 that approximates it; ≥ and ≤ were set here for values at or beyond the usual limits of such assays.
For another assay, the target named is HLA-C*03:03. The assay is described as above.
A further assay concerns the target HLA-C*05:01. Described as above.
The target of the next assay is HLA-B*27:05. Put plainly: IEDB peptide-MHC binding, purified MHC/competitive/fluorescence; filed as Kd, often an IC50 or EC50 that approximates it; ≥ and ≤ were set here for values at or beyond the usual limits of such assays.
Another assay concerns the target HLA-A*68:23. The assay is described as above.
In assay [2] the target is HLA-C*06:02. Described as above.
Another assay deals with HLA-B*83:01. The assay is described as above.
A further assay deals with HLA-A*32:15. The assay is described as above.
Another assay addresses HLA-A*03:19. The assay is described as above.
The target in a further assay is HLA-B*46:01. The description is as above. The following applies: source organism: Vibrio cholerae MAK 757.
The next assay has as its target HLA-B*35:01. The assay is described as above. The following applies: source organism: Yersinia pestis Nepal516.
The target in another assay is HLA-A*26:01. Described as above. To be noted: source organism: Yersinia pestis Nepal516.
Another assay deals with HLA-A*31:01. The description is as above.
Another assay deals with HLA-A*32:07. Described as above.
For the next assay, the target named is HLA-B*27:20. The assay is described as above.
In the next assay the target is HLA-A*02:01. Described as above.
The target in a further assay is HLA-B*39:01. Described as above.
For assay [3], the target named is HLA-C*14:02. Put plainly: IEDB peptide-MHC binding, purified MHC/direct/fluorescence; filed as Kd, often an IC50 or EC50 that approximates it; ≥ and ≤ were set here for values at or beyond the usual limits of such assays.
Assay [4] has as its target HLA-C*06:02. Described as above.
For another assay, the target named is HLA-C*15:02. Described as above.
Another assay addresses HLA-B*58:01. The assay is described as follows: IEDB peptide-MHC binding, purified MHC/competitive/fluorescence; filed as Kd, often an IC50 or EC50 that approximates it; ≥ and ≤ were set here for values at or beyond the usual limits of such assays.
The next assay concerns the target HLA-B*40:13. The assay is described as above.
The next assay has as its target HLA-C*07:02. The assay is described as follows: IEDB peptide-MHC binding, purified MHC/direct/fluorescence; filed as Kd, often an IC50 or EC50 that approximates it; ≥ and ≤ were set here for values at or beyond the usual limits of such assays.
A further assay addresses HLA-A*02:06. Put plainly: IEDB peptide-MHC binding, purified MHC/competitive/fluorescence; filed as Kd, often an IC50 or EC50 that approximates it; ≥ and ≤ were set here for values at or beyond the usual limits of such assays. The following applies: source organism: Brucella suis 1330.
For another assay, the target named is HLA-C*08:02. Put plainly: IEDB peptide-MHC binding, purified MHC/direct/fluorescence; filed as Kd, often an IC50 or EC50 that approximates it; ≥ and ≤ were set here for values at or beyond the usual limits of such assays. To be noted: source organism: Yersinia pestis CO92.
Where [5] appears, read: source organism: Mammarenavirus lassaense.
Where [6] appears, read: source organism: Mycobacterium tuberculosis F11.
Setting [7] is: source organism: Vaccinia virus.
The mark [8] stands for this setting: source organism: Vibrio cholerae MAK 757.
The mark [9] stands for this setting: source organism: Camelpox virus M-96.
Where [10] appears, read: source organism: Yersinia pestis Nepal516.
Where [11] appears, read: source organism: Escherichia coli O157:H7 str. EDL933.
Setting [12] is: source organism: Brucella suis 1330.
[13] abbreviates: source organism: Yersinia pestis CO92.

As a reminder, the Kd is the concentration at which binding is half-saturated. The low end stands for tighter binding, the high end for weaker binding.

ALTDLGLIY: the figures for the Kd with HLA-A*01:01 (setting [5]) and in the assay with HLA-A*80:01 (setting [5]) were 34.7 nM and 1.8 nM, respectively.

AYPKWKFFL: the figures for the equilibrium dissociation constant (Kd) with HLA-C*04:01 (source organism: Bacillus anthracis str. CDC 684) and in the assay with HLA-A*24:03 were at least 20000 nM and 1.7 nM, respectively.

In the case of FVAATGRPL, the Kd with HLA-C*14:02 [1] (setting [6]) is 30.2 nM; with HLA-B*15:42 (setting [6]) it was at least 5000 nM; in the assay with HLA-B*45:06 (setting [6]), at least 5000 nM; with HLA-C*12:03 (setting [6]), 95 nM; in the assay with HLA-C*03:03 (setting [6]) it was at most 1 nM.

For the sequence FVDVIIIKV, the dissociation constant (Kd) in the assay with HLA-C*04:01 (setting [7]) and in the assay with HLA-C*05:01 (setting [7]) was at least 20000 nM each time.

GKVERMVQY: the Kd in the assay with HLA-B*27:05 (source organism: Escherichia coli 536) is at least 20000 nM.

Consider GVPKTHLEL, for which the Kd is 23.1 nM with HLA-A*68:23 (source organism: Mus musculus); 1350 nM with HLA-C*06:02 [2] (source organism: Mus musculus); at least 5000 nM with HLA-B*83:01 (source organism: Mus musculus); at least 20000 nM with HLA-A*32:15 (source organism: Mus musculus); at least 5000 nM with HLA-B*15:42 (source organism: Mus musculus); 3230 nM with HLA-A*03:19 (source organism: Mus musculus). In the assay with HLA-B*45:06 (source organism: Mus musculus), this sequence displayed a dissociation constant (Kd) of at least 5000 nM.

In the case of IAAPNMIAV, the Kd with HLA-B*46:01 is 578 nM; with HLA-C*12:03 (setting [8]), 2 nM; with HLA-C*05:01 (setting [8]), 2170 nM; in the assay with HLA-C*03:03 (setting [8]), at most 1 nM.

Regarding MTDLSKKGY, the Kd was 2.8 nM with HLA-A*01:01 (setting [9]) and at least 20000 nM with HLA-A*80:01 (setting [9]).

For MVLSGTLAY, the Kd in the assay with HLA-C*14:02 [1] (setting [10]) was 123 nM; with HLA-B*83:01 (setting [10]) it was at least 5000 nM; with HLA-B*35:01, 1.2 nM; with HLA-B*15:42 (setting [10]), at least 5000 nM; with HLA-B*45:06 (setting [10]), at least 5000 nM; with HLA-A*26:01, 506 nM.

In the case of NRDGDSYYY, the Kd with HLA-A*80:01 (source organism: Yellow fever virus) was found to be 478 nM.

In the case of RAMRMVYYL, the Kd with HLA-A*31:01 (setting [10]) was 4 nM; in the assay with HLA-A*32:07 (setting [10]) it was 77.6 nM; in the assay with HLA-B*83:01 (setting [10]), at least 5000 nM; with HLA-B*27:20 (setting [10]), 14 nM; with HLA-A*02:01 (setting [10]), 0.8 nM; with HLA-B*15:42 (setting [10]), at least 5000 nM. In addition, the equilibrium dissociation constant (Kd) in the assay with HLA-B*39:01 (setting [10]) was 421 nM; with HLA-A*03:19 (setting [10]), 206 nM; in the assay with HLA-B*27:05 (setting [10]) it was 157 nM; with HLA-B*45:06 (setting [10]), at least 5000 nM; in the assay with HLA-C*14:02 [3] (setting [10]), 960 nM; with HLA-C*06:02 [4] (setting [10]), 798 nM. The Kd with HLA-C*05:01 (setting [10]) turned out to be 124 nM; with HLA-C*15:02 (setting [10]) it was 34 nM.

RLDPRLAPV: the Kd in the assay with HLA-C*03:03 (source organism: Mycobacterium tuberculosis variant bovis BCG str. Pasteur 1173P2) is at least 20000 nM.

For RMMGVKYLM, the Kd in the assay with HLA-A*31:01 (setting [11]) was 2.1 nM; with HLA-C*06:02 [2] (setting [11]), 798 nM; in the assay with HLA-A*32:07 (setting [11]), 1.1 nM; in the assay with HLA-B*83:01 (setting [11]) it was at least 5000 nM; in the assay with HLA-B*27:20 (setting [11]), 34 nM; with HLA-A*02:01 (setting [11]), 2 nM. In addition, the Kd in the assay with HLA-B*58:01 (setting [11]) was 16.8 nM; in the assay with HLA-B*15:42 (setting [11]), at least 5000 nM; with HLA-B*39:01 (setting [11]), 2190 nM; with HLA-A*03:19 (setting [11]) it was 886 nM; with HLA-B*40:13 (setting [11]) it was 3.2 nM; with HLA-B*45:06 (setting [11]) it was at least 5000 nM. The results for the Kd with HLA-C*07:02 (setting [11]), in the assay with HLA-C*14:02 [3] (setting [11]) and in the assay with HLA-C*15:02 (setting [11]) were 859 nM, 2340 nM and 2080 nM, respectively.

Turning to RQNAPFEPI, the Kd was 11.9 nM with HLA-A*32:07 (setting [12]); at least 5000 nM with HLA-B*83:01 (setting [12]); 1.1 nM with HLA-B*27:20 (setting [12]); 83.4 nM in the assay with HLA-A*02:01 (setting [12]); at least 5000 nM with HLA-B*15:42 (setting [12]); 53.6 nM with HLA-B*40:13 (setting [12]). Besides, the Kd is 1.2 nM in the assay with HLA-A*02:06 and at least 5000 nM with HLA-B*45:06 (setting [12]).

Take SYCNGVREL: the Kd was at least 20000 nM with HLA-C*04:01 (source organism: SARS-CoV1) and 133 nM in the assay with HLA-C*06:02 [4] (source organism: SARS-CoV1).

For VSLGAISFW, the Kd in the assay with HLA-B*58:01 (source organism: Influenza A virus (A/Leningrad/1954/1(H1N1))) was at most 1 nM.

As for YSFSRAYTL, the Kd with HLA-C*14:02 [1] (setting [13]) was 125 nM; in the assay with HLA-A*68:23 (setting [13]), 9.3 nM; with HLA-C*06:02 [2] (setting [13]), 47.8 nM; with HLA-A*32:07 (setting [13]) it was 164 nM; with HLA-B*83:01 (setting [13]), at least 5000 nM; with HLA-B*27:20 (setting [13]) it was 31.5 nM. For the same sequence, the Kd in the assay with HLA-A*32:15 (setting [13]) is 23.7 nM; in the assay with HLA-B*15:42 (setting [13]), at least 5000 nM; with HLA-B*39:01 (setting [13]), 3.9 nM; in the assay with HLA-B*40:13 (setting [13]), 6.3 nM; with HLA-B*45:06 (setting [13]), at least 5000 nM; with HLA-C*07:02 (setting [13]), 347 nM. Also, the Kd with HLA-C*05:01 (setting [13]) and with HLA-C*08:02 was at least 20000 nM in each case.
